Reference: patent US20190309094A1
Each block holds one substance with its values, some of them ahead of it.

Experiments:
[1] = biological target: CD3 on Jurkat luciferase reporter cells (Homo sapiens (Human)) (UniProt P07766); test: flow cytometry on Jurkat_NFAT_Luc2P cells, PE-A; histogram shifted to about 10^4
hCD3εγ chains (human) [2] = biological target: hCD3εγ chains (human) (UniProt P07766); test: ELISA on hCD3εγ chains, curve fit
hCD3εγ chains (human) [3] = biological target: hCD3εγ chains (human) (UniProt P07766); test: ELISA on hCD3εγ chains, curve fit (unit from the axis)
[4] = biological target: CD3 on Jurkat luciferase reporter cells (Homo sapiens (Human)) (UniProt P07766); test: flow cytometry on Jurkat_NFAT_Luc2P cells, control staining in all three panels
[5] = biological target: CD3 on Jurkat luciferase reporter cells (Homo sapiens (Human)) (UniProt P07766); test: flow cytometry on Jurkat_NFAT_Luc2P cells, FITC-A; histogram shifted to between 10^3 and 10^4

Sequence of UCHT1 (antibody) (V domain): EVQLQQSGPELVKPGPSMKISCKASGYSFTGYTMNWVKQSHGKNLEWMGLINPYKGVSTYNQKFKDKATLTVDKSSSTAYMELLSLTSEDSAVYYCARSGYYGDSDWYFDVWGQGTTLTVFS
Sequence of UCHT1 (antibody) (VL): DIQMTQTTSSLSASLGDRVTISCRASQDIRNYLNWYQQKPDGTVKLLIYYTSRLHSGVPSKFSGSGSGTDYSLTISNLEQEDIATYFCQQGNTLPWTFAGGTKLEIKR

Fold (fold over hIgG) [1]: 58
Substance: Commercial CD3e(HiT3a) (antibody)

Bmax (hCD3εγ chains (human) [2]): 1.52 OD 450 nm
Kd (hCD3εγ chains (human) [3]): 33.3 nM
Substance: UCHT1 (antibody)

Fold (fold (reference)) [4]: 1
Substance: hIgG (antibody)

Fold (fold over hIgG) [5]: 45
Substance: mOKT3 (antibody)
